Data as given in article PMC3499301 (mAbs, 2012).

Tests used:
[1] = target: the molecule itself
soluble human Tie2-Fc = soluble human Tie2-Fc (human, UniProt Q02763); assay: ELISA
soluble human Tie2-Fc, sequence (Q02763 23-748): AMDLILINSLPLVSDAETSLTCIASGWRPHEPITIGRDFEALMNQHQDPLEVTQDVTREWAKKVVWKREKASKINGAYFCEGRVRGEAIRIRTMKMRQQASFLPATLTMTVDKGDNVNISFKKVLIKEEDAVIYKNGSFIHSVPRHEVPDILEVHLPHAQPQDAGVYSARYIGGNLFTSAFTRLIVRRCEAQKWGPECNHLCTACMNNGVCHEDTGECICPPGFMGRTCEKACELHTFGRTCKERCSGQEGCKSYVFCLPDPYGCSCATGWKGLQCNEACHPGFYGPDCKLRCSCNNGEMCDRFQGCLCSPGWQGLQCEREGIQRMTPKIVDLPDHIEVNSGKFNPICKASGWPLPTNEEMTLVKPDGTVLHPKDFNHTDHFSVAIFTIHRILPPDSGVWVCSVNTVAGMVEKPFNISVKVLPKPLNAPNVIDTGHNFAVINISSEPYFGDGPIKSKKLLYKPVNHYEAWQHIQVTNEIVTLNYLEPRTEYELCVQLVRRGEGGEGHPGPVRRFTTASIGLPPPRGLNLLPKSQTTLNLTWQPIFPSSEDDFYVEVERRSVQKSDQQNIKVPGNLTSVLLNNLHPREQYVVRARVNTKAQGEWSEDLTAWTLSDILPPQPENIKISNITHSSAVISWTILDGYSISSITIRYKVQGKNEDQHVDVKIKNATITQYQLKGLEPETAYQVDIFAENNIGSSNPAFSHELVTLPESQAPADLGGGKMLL

B1: His-tagged Ang2 prepared in-house (Zyngenia) (ligand)
chain: YNNFRKSMDSIGKKQYQVQHGSCSYTFLLPEMDNCRSSSSPYVSNAVQRDAPLEYDDSVQRLQVLENIMENNTQWLMKLENYIQDNMKKEMVEIQQNAVQNQTAVMIEIGTNLLNQTAEQTRKLTDVEAQVLNQTTRLELQLLEHSLSTNKLEKQILDQTSEINKLQDKNSFLEKKVLAMEDKHIIQLQSIKEEKDQLQVLVSKQNSIIEELEKKIVTATVNNSVLQKQQHDLMETVNNLLTMMSTSNSAKDPTVAKEEQISFRDCAEVFKSGHTTNGIYTLTFPNSTEEIKAYCDMEAGGGGWTIIQRREDGSVDFQRTWKEYKVGFGNPSGEYWLGNEFVSQLTNQQRYVLKIHLKDWEGNEAYSLYEHFYLSSEELNYRIHLKGLTGTAGKISSISQPGNDFSTKDGDNDKCICKCSQMLTGGWWFDACGPSNLNGMYYPQRQNTNKFNGIKWYYWKGSGYSLKATTMMIRPADF
[1]
  stoichiometry N: 2

B2: Recombinant human Ang2 (R&D Systems) (ligand)
chain: B1 chain
Soluble human Tie2-Fc
  binding result: binds
